Measurements published in patent US5534407.

How the values were obtained:
[1] = tested on: T4 gene 32 protein (Bacteriophage T4); conditions: renaturation t1/2; about 1% annealed after 60 min; 10 mM MgCl2, 50 mM NaCl, 37 C
[2] = tested on: RecA protein (Escherichia coli); conditions: renaturation t1/2 with about 500 uM ATP; little renaturation without ATP; 10 mM MgCl2, 50 mM NaCl, 37 C
[3] = tested on: T7 gene 2.5 protein (Bacteriophage T7); conditions: renaturation t1/2 by agarose gel annealing assay; 10 mM MgCl2, 50 mM NaCl, pH 7.5, 37 C, no ATP; none >30,000 min

Substance: 167-nt fragment (primer-extended to XmnI site) plus circular M13 mGP1-2 ssDNA
- activity [1]: 3000 min
- activity [2]: 60 min
- activity [3]: 1 min
